Biological target: CD4 (human) (UniProt P01730)
Experiment: cell-based or functional assay

## HIV-1 envelope glycoprotein (Env) (from UniProt P04578 33-856)
  transduction (mNeonGreen+) of CD4+ cells in a mixture of CD4+ and CD8+ primary human T cells treated with Env-Cas9-VLPs, highest treatment dose: 53.2%

Source: patent publication US20260146247A1
